Experiments:
c-Src SH2 = test: SH2 binding enrichment of the phosphorylated peptide, bacterial display (enrichment ratio); higher = better substrate or ligand; peptides without Tyr show the background
Grb2 SH2 = Grb2 SH2 (UniProt P62993); test: as above
SHP2-C SH2 = test: as above
EPHB1 = EPHB1 (UniProt P54762); test: phosphorylation enrichment, bacterial display (enrichment ratio); higher = better substrate or ligand; peptides without Tyr show the background
Fyn = Fyn (UniProt P06241); test: as above
Fyn, sequence (P06241 whole entry, looked up): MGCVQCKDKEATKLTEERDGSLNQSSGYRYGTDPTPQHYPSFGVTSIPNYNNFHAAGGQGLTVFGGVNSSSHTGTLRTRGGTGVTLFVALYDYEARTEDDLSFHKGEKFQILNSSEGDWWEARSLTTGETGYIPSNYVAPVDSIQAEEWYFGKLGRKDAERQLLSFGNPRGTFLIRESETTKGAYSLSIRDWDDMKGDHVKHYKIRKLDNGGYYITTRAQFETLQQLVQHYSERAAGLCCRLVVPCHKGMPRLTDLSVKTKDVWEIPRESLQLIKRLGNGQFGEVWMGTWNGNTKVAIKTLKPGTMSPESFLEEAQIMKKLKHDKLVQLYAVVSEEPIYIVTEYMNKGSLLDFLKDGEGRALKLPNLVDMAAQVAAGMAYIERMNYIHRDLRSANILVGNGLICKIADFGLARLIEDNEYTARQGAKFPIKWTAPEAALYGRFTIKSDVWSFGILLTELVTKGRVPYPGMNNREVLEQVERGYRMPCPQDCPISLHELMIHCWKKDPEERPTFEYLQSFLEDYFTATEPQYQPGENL

FGFR1 = FGFR1 (UniProt P11362); test: as above
FGFR1, sequence (P11362 whole entry, looked up): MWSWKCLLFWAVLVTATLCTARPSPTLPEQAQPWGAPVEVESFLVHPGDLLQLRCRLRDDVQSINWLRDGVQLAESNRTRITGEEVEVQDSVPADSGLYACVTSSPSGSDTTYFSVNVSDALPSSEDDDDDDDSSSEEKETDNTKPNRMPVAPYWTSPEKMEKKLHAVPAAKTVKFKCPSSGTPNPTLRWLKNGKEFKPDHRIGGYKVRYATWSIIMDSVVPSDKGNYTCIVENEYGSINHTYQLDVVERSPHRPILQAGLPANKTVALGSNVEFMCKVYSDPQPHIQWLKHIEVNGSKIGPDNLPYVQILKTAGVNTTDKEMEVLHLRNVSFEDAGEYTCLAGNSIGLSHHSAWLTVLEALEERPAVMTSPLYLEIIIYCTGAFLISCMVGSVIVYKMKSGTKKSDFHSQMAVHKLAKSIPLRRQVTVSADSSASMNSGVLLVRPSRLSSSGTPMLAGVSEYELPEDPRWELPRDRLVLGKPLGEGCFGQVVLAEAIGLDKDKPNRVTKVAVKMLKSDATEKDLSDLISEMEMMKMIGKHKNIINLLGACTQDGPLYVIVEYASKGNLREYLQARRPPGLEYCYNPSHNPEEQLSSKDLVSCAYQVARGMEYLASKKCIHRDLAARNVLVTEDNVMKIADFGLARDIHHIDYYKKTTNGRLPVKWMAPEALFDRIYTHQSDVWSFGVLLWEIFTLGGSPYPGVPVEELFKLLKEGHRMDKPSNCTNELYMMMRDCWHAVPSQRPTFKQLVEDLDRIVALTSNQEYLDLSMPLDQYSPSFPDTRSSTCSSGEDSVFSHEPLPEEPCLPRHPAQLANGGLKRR

AncSZ = test: as above
c-Src = test: as above
Jak2 = Jak2 (UniProt O60674); test: as above
Jak2, sequence (O60674 whole entry, looked up): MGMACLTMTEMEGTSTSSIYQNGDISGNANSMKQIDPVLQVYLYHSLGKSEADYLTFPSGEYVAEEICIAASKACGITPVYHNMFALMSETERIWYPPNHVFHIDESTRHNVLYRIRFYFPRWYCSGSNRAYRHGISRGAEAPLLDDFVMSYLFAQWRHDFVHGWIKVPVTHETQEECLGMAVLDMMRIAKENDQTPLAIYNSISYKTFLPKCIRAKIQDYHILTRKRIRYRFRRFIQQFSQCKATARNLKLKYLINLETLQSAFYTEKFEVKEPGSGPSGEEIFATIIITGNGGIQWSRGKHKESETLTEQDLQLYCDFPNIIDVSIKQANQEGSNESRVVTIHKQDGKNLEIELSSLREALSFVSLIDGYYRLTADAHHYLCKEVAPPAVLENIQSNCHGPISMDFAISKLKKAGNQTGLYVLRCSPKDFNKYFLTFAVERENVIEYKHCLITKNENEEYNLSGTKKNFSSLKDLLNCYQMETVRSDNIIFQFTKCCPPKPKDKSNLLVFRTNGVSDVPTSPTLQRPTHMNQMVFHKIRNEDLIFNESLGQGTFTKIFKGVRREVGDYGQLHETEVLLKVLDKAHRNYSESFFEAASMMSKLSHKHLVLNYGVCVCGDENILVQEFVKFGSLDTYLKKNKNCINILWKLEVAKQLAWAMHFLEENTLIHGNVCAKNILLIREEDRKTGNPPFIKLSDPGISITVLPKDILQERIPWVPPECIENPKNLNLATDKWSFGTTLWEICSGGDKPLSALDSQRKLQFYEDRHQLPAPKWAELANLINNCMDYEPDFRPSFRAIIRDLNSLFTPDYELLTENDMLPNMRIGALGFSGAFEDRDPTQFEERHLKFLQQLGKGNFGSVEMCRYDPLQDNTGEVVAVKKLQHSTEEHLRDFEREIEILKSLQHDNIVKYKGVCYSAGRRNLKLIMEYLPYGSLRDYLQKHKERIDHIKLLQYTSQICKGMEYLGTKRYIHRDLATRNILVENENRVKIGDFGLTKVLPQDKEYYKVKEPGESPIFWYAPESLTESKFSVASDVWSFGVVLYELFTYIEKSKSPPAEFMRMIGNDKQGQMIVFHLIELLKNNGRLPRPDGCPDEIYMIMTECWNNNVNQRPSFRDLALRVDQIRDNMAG

Hck = Hck (UniProt P08631); test: as above
EPHB2 = EPHB2 (UniProt P29323); test: as above
Fes = Fes (UniProt P07332); test: as above
MERTK = MERTK (UniProt Q12866); test: as above
MERTK, sequence (Q12866 whole entry, looked up): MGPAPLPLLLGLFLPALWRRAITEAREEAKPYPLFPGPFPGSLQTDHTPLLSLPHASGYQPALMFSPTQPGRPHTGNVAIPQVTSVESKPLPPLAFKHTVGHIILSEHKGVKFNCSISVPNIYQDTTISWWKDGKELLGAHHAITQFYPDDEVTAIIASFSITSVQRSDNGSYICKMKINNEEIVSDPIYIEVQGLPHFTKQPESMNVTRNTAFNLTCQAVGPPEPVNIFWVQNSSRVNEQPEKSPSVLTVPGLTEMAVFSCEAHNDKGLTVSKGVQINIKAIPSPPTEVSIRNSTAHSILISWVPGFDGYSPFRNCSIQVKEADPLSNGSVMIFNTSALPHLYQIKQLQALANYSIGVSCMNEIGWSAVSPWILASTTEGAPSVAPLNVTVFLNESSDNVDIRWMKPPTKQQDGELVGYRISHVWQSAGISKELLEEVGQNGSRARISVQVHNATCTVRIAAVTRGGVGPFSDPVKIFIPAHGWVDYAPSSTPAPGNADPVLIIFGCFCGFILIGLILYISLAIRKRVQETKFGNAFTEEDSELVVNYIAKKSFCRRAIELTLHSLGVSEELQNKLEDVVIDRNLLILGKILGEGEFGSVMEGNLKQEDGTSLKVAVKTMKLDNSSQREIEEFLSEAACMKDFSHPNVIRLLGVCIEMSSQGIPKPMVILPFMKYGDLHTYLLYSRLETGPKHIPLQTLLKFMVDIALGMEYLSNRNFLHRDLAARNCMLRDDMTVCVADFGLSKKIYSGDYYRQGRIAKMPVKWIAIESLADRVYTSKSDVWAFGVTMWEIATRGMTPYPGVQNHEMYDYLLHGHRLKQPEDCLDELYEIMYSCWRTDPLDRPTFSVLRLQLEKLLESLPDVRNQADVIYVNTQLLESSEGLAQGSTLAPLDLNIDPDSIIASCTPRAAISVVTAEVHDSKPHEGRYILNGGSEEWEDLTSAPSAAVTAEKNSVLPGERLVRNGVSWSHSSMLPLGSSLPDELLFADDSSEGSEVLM

FGFR3 = FGFR3 (UniProt P22607); test: as above
Fer (mouse) = test: as above
c-Abl (mouse) = test: as above
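Throughout, for SH2 binding enrichment of the phosphorylated peptide, bacterial display: peptide library displayed on the E. coli surface as eCPX fusions, selected cells deep-sequenced, score is each peptide's frequency after selection divided by its frequency in the input.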
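Throughout, for phosphorylation enrichment, bacterial display: 11-residue human phosphosite peptides and single-mutation variants displayed on the E. coli surface, counted by deep sequencing, each peptide's frequency after selection divided by its frequency in the unselected input library; frequency after pTyr selection over input frequency; kinase dosed for 20-30% of maximal phosphorylation in three min.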

Grb2 SH2, sequence (P62993 whole entry, looked up): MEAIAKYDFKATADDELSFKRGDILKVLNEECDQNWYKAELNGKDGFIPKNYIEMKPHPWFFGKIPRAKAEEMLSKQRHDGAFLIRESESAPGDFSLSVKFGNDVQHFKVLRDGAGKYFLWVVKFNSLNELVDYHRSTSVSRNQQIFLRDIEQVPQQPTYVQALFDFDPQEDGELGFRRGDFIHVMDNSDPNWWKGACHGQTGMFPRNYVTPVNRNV
EPHB1, sequence (P54762 whole entry, looked up): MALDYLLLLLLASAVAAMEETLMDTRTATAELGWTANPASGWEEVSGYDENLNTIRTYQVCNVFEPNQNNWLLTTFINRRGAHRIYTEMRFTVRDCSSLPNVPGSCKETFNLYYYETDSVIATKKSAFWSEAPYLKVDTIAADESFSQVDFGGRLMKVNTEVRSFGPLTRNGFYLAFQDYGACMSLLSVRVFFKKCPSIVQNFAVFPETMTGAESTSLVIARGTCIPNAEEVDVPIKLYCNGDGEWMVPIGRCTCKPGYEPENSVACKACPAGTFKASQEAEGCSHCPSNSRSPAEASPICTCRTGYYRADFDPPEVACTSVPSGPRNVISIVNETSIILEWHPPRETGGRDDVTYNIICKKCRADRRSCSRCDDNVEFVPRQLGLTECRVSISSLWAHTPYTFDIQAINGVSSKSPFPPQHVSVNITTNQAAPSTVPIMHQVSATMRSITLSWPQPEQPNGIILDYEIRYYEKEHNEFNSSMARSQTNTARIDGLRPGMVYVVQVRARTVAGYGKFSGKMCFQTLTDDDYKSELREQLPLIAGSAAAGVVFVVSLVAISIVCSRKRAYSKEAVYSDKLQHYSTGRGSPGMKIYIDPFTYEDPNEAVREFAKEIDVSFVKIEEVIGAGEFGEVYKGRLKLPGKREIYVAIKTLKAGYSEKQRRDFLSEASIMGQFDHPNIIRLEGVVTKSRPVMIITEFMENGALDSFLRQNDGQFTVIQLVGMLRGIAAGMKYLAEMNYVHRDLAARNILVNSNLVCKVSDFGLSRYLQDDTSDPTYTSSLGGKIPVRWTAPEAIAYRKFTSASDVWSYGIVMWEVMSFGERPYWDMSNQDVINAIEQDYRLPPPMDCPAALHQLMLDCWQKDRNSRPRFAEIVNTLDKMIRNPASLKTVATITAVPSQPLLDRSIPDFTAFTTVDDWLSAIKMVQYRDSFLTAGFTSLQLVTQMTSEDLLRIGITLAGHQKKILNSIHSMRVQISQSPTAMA

Sequence | SH2 binding enrichment (c-Src SH2) | SH2 binding enrichment (Grb2 SH2) | SH2 binding enrichment (SHP2-C SH2) | phosphorylation enrichment (EPHB1) | phosphorylation enrichment (Fyn) | phosphorylation enrichment (FGFR1) | phosphorylation enrichment (AncSZ) | phosphorylation enrichment (c-Src) | phosphorylation enrichment (Jak2) | phosphorylation enrichment (Hck) | phosphorylation enrichment (EPHB2) | phosphorylation enrichment (Fes) | phosphorylation enrichment (MERTK) | phosphorylation enrichment (FGFR3) | phosphorylation enrichment (Fer (mouse)) | phosphorylation enrichment (c-Abl (mouse))
YSDPSYVKQME [CDC5L_Y464] | 1.05 | 0.8 | 0.608 | 0.392 | 0.434 | 0.985 | 1.1 | 0.473 | 0.557 | 0.593 | 0.57 | 0.817 | 0.578 | 0.716 | 0.409 | 0.537
VVRSLYEDLED [VHL_Y185_I180V] | 10.1 | 0.988 | 0.981 | 0.711 | 0.587 | 0.556 | 1.26 | 0.544 | 1.21 | 0.573 | 0.984 | 1.24 | 0.525 | 0.792 | 1.24 | 0.835
AESPEHVHMFT [FAM111A_Y511_Y511H_YF] | 0.421 | 0.786 | 0.54 | 0.566 | 0.446 | 0.433 | 0.746 | 0.36 | 0.754 | 0.447 | 0.569 | 1.01 | 0.416 | 0.614 | 0.431 | 0.661
CPEARYNRSPI [PTAR1_Y42] | 0.522 | 0.618 | 0.483 | 0.485 | 0.441 | 0.419 | 0.699 | 0.399 | 0.641 | 0.492 | 0.458 | 0.859 | 0.433 | 0.617 | 0.435 | 0.55
LGKLTYPVGFW [NTHL1_Y177_I176T] | 0.478 | 0.904 | 1.02 | 1.12 | 1.14 | 1.31 | 2.42 | 1.35 | 2.04 | 1.23 | 1.65 | 2.06 | 0.889 | 1.48 | 1.32 | 1.32
RVGNMYVRGLS [ABCG8_Y209] | 0.564 | 0.994 | 0.732 | 0.457 | 0.574 | 0.58 | 0.672 | 0.331 | 0.709 | 0.675 | 0.471 | 0.839 | 0.395 | 0.682 | 0.468 | 0.494
NHYKIYNLYAE [PTEN_Y68_C71Y] | 0.675 | 0.862 | 0.698 | 0.455 | 2.14 | 0.461 | 0.749 | 2.43 | 0.664 | 2.54 | 0.641 | 0.723 | 0.461 | 0.541 | 0.481 | 0.56
GEVLVYAEDPA [FLNA_Y319_V320A] | 0.549 | 0.874 | 1 | 0.607 | 0.593 | 0.496 | 1.21 | 0.553 | 0.814 | 0.543 | 0.53 | 1.05 | 0.408 | 0.704 | 0.385 | 0.496
LATINYPFEKG [NDUFS8_Y84_P79L] | 0.557 | 1.09 | 0.628 | 0.565 | 0.421 | 0.503 | 0.827 | 0.467 | 0.642 | 0.401 | 0.484 | 0.914 | 0.377 | 0.576 | 0.5 | 0.64
CQASLYPSNHD [LRIG1_Y996_G993A] | 0.475 | 0.781 | 0.694 | 0.721 | 0.571 | 0.577 | 1.08 | 0.449 | 1.01 | 0.595 | 0.624 | 1.3 | 0.42 | 0.792 | 0.524 | 0.798
AQMAMYFWEMG [TRPM4_Y577] | 0.908 | 1.49 | 1.43 | 0.995 | 1.1 | 3.25 | 1.38 | 2.62 | 1.37 | 1.36 | 0.914 | 1.45 | 2.67 | 3.09 | 0.682 | 1.11
ILLAGCLVMVI [SLC28A3_Y113_Y113C] | 0.533 | 0.92 | 0.534 | 0.607 | 0.471 | 0.422 | 1.24 | 0.475 | 1.18 | 0.51 | 0.614 | 1.26 | 0.486 | 0.829 | 0.493 | 0.995
INPIIYAFVVE [CCR5_Y297_G301V] | 0.402 | 0.912 | 0.73 | 4.53 | 2.42 | 1 | 1.25 | 2.59 | 1.2 | 1.78 | 3.82 | 1.5 | 4.13 | 1.29 | 2.66 | 2.37
LGQRIYQFIRS [DYRK1B_Y271_Q275R_YF] | 2.21 | 1.38 | 1.07 | 9.19 | 1.86 | 1.39 | 1.3 | 2.83 | 0.887 | 6.17 | 2.54 | 1.19 | 6.97 | 1.21 | 5.51 | 0.98
GHMFAYDWISI [BEST1_Y227_L224M_YF] | 1.15 | 1.25 | 1.03 | 1.05 | 0.935 | 3.48 | 1.47 | 1.28 | 0.842 | 1.78 | 0.933 | 2.68 | 7.14 | 2.15 | 13.8 | 0.922
IHSGIYYKPES [L2HGDH_Y102] | 0.67 | 0.762 | 0.539 | 3.93 | 6 | 1.53 | 1.45 | 4.54 | 3.48 | 5.38 | 2.02 | 0.752 | 11.7 | 1.38 | 0.943 | 18.7
PLGKDYRKAEG [MAP1A_Y1909] | 0.408 | 0.884 | 0.647 | 0.512 | 0.72 | 0.691 | 0.68 | 0.456 | 0.378 | 0.945 | 0.532 | 0.941 | 0.589 | 0.787 | 0.655 | 0.505

Sequence | SH2 binding enrichment (c-Src SH2) | SH2 binding enrichment (Grb2 SH2) | SH2 binding enrichment (SHP2-C SH2) | phosphorylation enrichment (EPHB1) | phosphorylation enrichment (Fyn) | phosphorylation enrichment (FGFR1) | phosphorylation enrichment (AncSZ) | phosphorylation enrichment (c-Src) | phosphorylation enrichment (Jak2) | phosphorylation enrichment (Hck) | phosphorylation enrichment (EPHB2) | phosphorylation enrichment (Fes) | phosphorylation enrichment (MERTK) | phosphorylation enrichment (FGFR3) | phosphorylation enrichment (Fer (mouse)) | phosphorylation enrichment (c-Abl (mouse))
SLEKSYELPDG [ACTA1_Y242] | 1.26 | 0.824 | 0.65 | 0.614 | 0.49 | 0.544 | 1.06 | 0.479 | 0.913 | 0.534 | 0.531 | 1.15 | 0.467 | 0.707 | 0.538 | 0.712
VDEVLYEDSSA [MTHFS_Y197_T202A] | 0.551 | 0.834 | 0.979 | 0.637 | 0.502 | 0.679 | 1.47 | 0.647 | 1.29 | 0.716 | 0.577 | 1.16 | 0.508 | 0.609 | 2.08 | 0.923
KILTHYKRPHT [KMT2D_Y5349] | 1.56 | 1.76 | 1.27 | 0.359 | 0.393 | 0.456 | 0.495 | 0.379 | 0.439 | 0.349 | 0.42 | 0.621 | 0.365 | 0.515 | 0.445 | 0.579
SNNFIYTTLGV [FAM83B_Y639_K640T_YF] | 0.72 | 0.936 | 0.927 | 2.23 | 7.76 | 1.22 | 0.899 | 5.65 | 0.666 | 7.53 | 1.39 | 0.885 | 6.9 | 1.16 | 2.67 | 1.56
LREKVYASLEA [RXRA_Y397] | 0.75 | 0.665 | 1.28 | 0.823 | 6.2 | 0.84 | 1.63 | 6.94 | 1.21 | 2.9 | 0.862 | 1.9 | 2.22 | 0.944 | 0.892 | 5.68
NNRVFYGNSDC [RS1_Y177_R182C] | 0.613 | 1.16 | 0.811 | 0.489 | 0.434 | 0.467 | 0.954 | 0.381 | 0.862 | 0.429 | 0.486 | 0.863 | 0.369 | 0.62 | 0.432 | 0.742
DFFDLYGGQKF [PTPN11_Y66_E69Q_YF] | 0.735 | 0.883 | 0.541 | 0.464 | 7.17 | 0.609 | 1.13 | 6.89 | 0.931 | 8.96 | 0.662 | 0.94 | 0.567 | 0.715 | 0.82 | 0.866
YAKSVYWENTL [NUP107_Y296] | 1.12 | 0.823 | 0.894 | 0.584 | 0.61 | 0.49 | 1.02 | 0.871 | 0.821 | 0.674 | 0.485 | 0.967 | 0.526 | 0.619 | 0.492 | 0.728
DLVHPYVHKIL [SF3B1_Y570_R568H] | 0.522 | 0.937 | 0.983 | 0.468 | 0.495 | 0.457 | 0.717 | 0.402 | 1.03 | 0.432 | 0.51 | 0.841 | 0.435 | 0.567 | 0.497 | 0.655
IFHENYNAGTY [CFI_Y421] | 0.625 | 0.788 | 0.676 | 0.656 | 0.664 | 0.557 | 0.804 | 0.655 | 0.783 | 0.717 | 0.585 | 1.02 | 0.533 | 0.588 | 1.01 | 0.603
NRLTDYYEPLL [BBS10_Y536] | 1.93 | 0.788 | 0.755 | 8.92 | 1.03 | 11 | 2.64 | 1.33 | 1.63 | 3.28 | 6.55 | 0.826 | 3.6 | 7.93 | 2.11 | 1.61
SFPHEYGSQEG [RBM10_Y48_R46H_YF] | 0.643 | 0.93 | 0.623 | 0.485 | 0.515 | 0.565 | 0.768 | 0.395 | 0.645 | 0.679 | 0.602 | 0.87 | 0.459 | 1.46 | 0.47 | 0.583
LVVFEYMRHGD [NTRK1_Y591_M587V] | 0.725 | 1.2 | 1.35 | 0.577 | 0.46 | 0.486 | 0.875 | 0.374 | 0.761 | 0.475 | 0.556 | 1.03 | 0.392 | 0.625 | 0.456 | 0.476
LNPDGYEKAYE [CPXM2_Y427] | 4.86 | 0.93 | 0.729 | 0.696 | 0.797 | 0.633 | 1.12 | 0.478 | 2.41 | 0.489 | 0.816 | 1.53 | 0.364 | 0.789 | 0.365 | 0.773
VRSVDYVLFRS [FAM189B_Y361] | 0.648 | 1.13 | 1.12 | 0.825 | 0.455 | 2.09 | 1.06 | 0.403 | 0.583 | 0.528 | 0.534 | 0.831 | 0.44 | 1.4 | 0.544 | 0.516
GDKENYGLPQP [BUB1_Y538_N534D] | 0.518 | 0.866 | 0.742 | 0.509 | 0.461 | 0.452 | 0.873 | 0.433 | 0.715 | 0.469 | 0.794 | 0.859 | 0.432 | 0.567 | 0.419 | 0.632

From the supplement of paper PMC10065799, “High-throughput profiling of sequence recognition by tyrosine kinases and SH2 domains using bacterial peptide display” (eLife, 2023)
